5 sequences from the supplement of paper PMC5998384 can be followed below.

Data set [1] has as its system HeLa Kyoto. Put plainly: solubility in G1/S (NP-40 vs SDS abundance) (log2 ratio); higher = more soluble. Particulars: cell cycle stage: G1/S.
Data set [2] concerns HeLa Kyoto. Kind of data set: melting temperature (median over replicates), in situ; higher = more thermally stable.
Data set [3] concerns HeLa Kyoto. Kind of data set: solubility change mitosis vs G1/S (difference of NP-40 vs SDS log2 ratios) (log2 ratio difference); higher = more soluble in mitosis.
Data set [4] relates to HeLa Kyoto. Kind of data set: thermal stability score vs G1/S (z-score of summed log2 fold changes over temperatures); higher = more thermally stable than in G1/S.
The mark [5] stands for this setting: cell cycle stage: early G1 (4.5 h after nocodazole release).
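Throughout, for melting temperature (median over replicates), in situ: HeLa Kyoto cells synchronized by double thymidine or nocodazole block, proteins quantified by TMT10plex mass spectrometry, three independent biological replicates.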
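Throughout, for solubility change mitosis vs G1/S (difference of NP-40 vs SDS log2 ratios): synchronized HeLa Kyoto cells (double thymidine block for G1/S, nocodazole release for mitosis), protein amounts in NP-40 versus SDS lysates quantified by mass spectrometry, three biological replicates.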
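Throughout, for solubility in G1/S (NP-40 vs SDS abundance): HeLa Kyoto cells arrested at G1/S by double thymidine block, proteins quantified by TMT10plex mass spectrometry in mild NP-40 versus SDS extracts, three biological replicates.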
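Throughout, for thermal stability score vs G1/S (z-score of summed log2 fold changes over temperatures): synchronized HeLa Kyoto cells, proteins quantified by TMT10plex mass spectrometry, three biological replicates, mitosis taken 0.5 h after nocodazole release, G1/S directly after double thymidine block.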

For the sequence “MQGSSLWLSLTFRSARVLSRARFFEWQSPGLPNTAAMENGTGPYGEERPREVQETTVTEGAAKIAFPSANEVFYNPVQEFNRDLTCAVITEFARIQLGAKGIQIKVPGEKDTQKVVVDLSEQEEEKVELKESENLASGDQPRTAAVGEICEEGLHVLEGLAASGLRSIRFALEVPGLRSVVANDASTRAVDLIRRNVQLNDVAHLVQPSQADARMLMYQHQRVSERFDVIDLDPYGSPATFLDAAVQAVSEGGLLCVTCTDMAVLAGNSGETCYSKYGAMALKSRACHEMALRIVLHSLDLRANCYQRFVVPLLSISADFYVRVFVRVFTGQAKVKASASKQALVFQCVGCGAFHLQRLGKASGVPSGRAKFSAACGPPVTPECEHCGQRHQLGGPMWAEPIHDLDFVGRVLEAVSANPGRFHTSERIRGVLSVITEELPDVPLYYTLDQLSSTIHCNTPSLLQLRSALLHADFRVSLSHACKNAVKTDAPASALWDIMRCWEKECPVKRERLSETSPAFRILSVEPRLQANFTIREDANPSSRQRGLKRFQANPEANWGPRPRARPGGKAADEAMEERRRLLQNKRKEPPEDVAQRAARLKTFPCKRFKEGTCQRGDQCCYSHSPPTPRVSADAAPDCPETSNQTPPGPGAAAGPGID [TRMT1]”, the “solubility in G1/S (log2)” value in data set [1] was -0.0405. In addition, the melting temperature in data set [2] (cell cycle stage: G1/S) was 56.3 °C; in data set [2] (cell cycle stage: mitosis), 56.7 °C. Moreover, in data set [3], the “solubility change mitosis (log2)” value was -0.0538. For the same sequence, the thermal stability score in data set [4] (setting [5]) was -0.711; in data set [4] (cell cycle stage: mitosis) it was -1.01.

As to “MQLRNPELHLGCALALRFLALVSWDIPGARALDNGLARTPTMGWLHWERFMCNLDCQEEPDSCISEKLFMEMAELMVSEGWKDAGYEYLCIDDCWMAPQRDSEGRLQADPQRFPHGIRQLANYVHSKGLKLGIYADVGNKTCAGFPGSFGYYDIDAQTFADWGVDLLKFDGCYCDSLENLADGYKHMSLALNRTGRSIVYSCEWPLYMWPFQKPNYTEIRQYCNHWRNFADIDDSWKSIKSILDWTSFNQERIVDVAGPGGWNDPDMLVIGNFGLSWNQQVTQMALWAIMAAPLFMSNDLRHISPQAKALLQDKDVIAINQDPLGKQGYQLRQGDNFEVWERPLSGLAWAVAMINRQEIGGPRSYTIAVASLGKGVACNPACFITQLLPVKRKLGFYEWTSRLRSHINPTGTVLLQLENTMQMSLKDLL”, the “solubility in G1/S (log2)” value in data set [1] was 0.24. The values for the melting temperature in data set [2] (cell cycle stage: G1/S) and in data set [2] (cell cycle stage: mitosis) were 55.1 °C and 56.7 °C, respectively. The “solubility change mitosis (log2)” value in data set [3] was -0.105. In addition, the thermal stability score in data set [4] (setting [5]) was -3.45; in data set [4] (cell cycle stage: mitosis) it was -2.97.

In the case of “MQLTVKALQGRECSLQVPEDELVSTLKQLVSEKLNVPVRQQRLLFKGKALADGKRLSDYSIGPNSKLNLVVKPLEKVLLEEGEAQRLADSPPPQVWQLISKVLARHFSAADASRVLEQLQRDYERSLSRLTLDDIERLASRFLHPEVTETMEKGFSK [UBL4A]”, in data set [1], the “solubility in G1/S (log2)” value turned out to be 0.557. In addition, the melting temperature in data set [2] (cell cycle stage: G1/S) was 51.4 °C; in data set [2] (cell cycle stage: mitosis), 51.7 °C. The “solubility change mitosis (log2)” value in data set [3] was 0.277. The figures for the thermal stability score in data set [4] (setting [5]) and in data set [4] (cell cycle stage: mitosis) were 0.0718 and 0.136, respectively.

Turning to “MQMSYAIRCAFYQLLLAALMLVAMLQLLYLSLLSGLHGQEEQDQYFEFFPPSPRSVDQVKAQLRTALASGGVLDASGDYRVYRGLLKTTMDPNDVILATHASVDNLLHLSGLLERWEGPLSVSVFAATKEEAQLATVLAYALSSHCPDMRARVAMHLVCPSRYEAAVPDPREPGEFALLRSCQEVFDKLARVAQPGINYALGTNVSYPNNLLRNLAREGANYALVIDVDMVPSEGLWRGLREMLDQSNQWGGTALVVPAFEIRRARRMPMNKNELVQLYQVGEVRPFYYGLCTPCQAPTNYSRWVNLPEESLLRPAYVVPWQDPWEPFYVAGGKVPTFDERFRQYGFNRISQACELHVAGFDFEVLNEGFLVHKGFKEALKFHPQKEAENQHNKILYRQFKQELKAKYPNSPRRC [B4GAT1]”, in data set [1], the “solubility in G1/S (log2)” value was 0.284. For the same sequence, the values for the melting temperature in data set [2] (cell cycle stage: G1/S) and in data set [2] (cell cycle stage: mitosis) were 53.7 °C and 54.1 °C, respectively. In addition, the “solubility change mitosis (log2)” value in data set [3] was 0.00523. The results for the thermal stability score in data set [4] (setting [5]) and in data set [4] (cell cycle stage: mitosis) were 0.621 and 0.329, respectively.

As to “MQMVPSLPPASECAGEEKRVGTRTVFVGNHPVSETEAYIAQRFCDNRIVSSKYTLWNFLPKNLFEQFRRIANFYFLIIFLVQVTVDTPTSPVTSGLPLFFVITVTAIKQGYEDCLRHRADNEVNKSTVYIIENAKRVRKESEKIKVGDVVEVQADETFPCDLILLSSCTTDGTCYVTTASLDGESNCKTHYAVRDTIALCTAESIDTLRAAIECEQPQPDLYKFVGRINIYSNSLEAVARSLGPENLLLKGATLKNTEKIYGVAVYTGMETKMALNYQGKSQKRSAVEKSINAFLIVYLFILLTKAAVCTTLKYVWQSTPYNDEPWYNQKTQKERETLKVLKMFTDFLSFMVLFNFIIPVSMYVTVEMQKFLGSFFISWDKDFYDEEINEGALVNTSDLNEELGQVDYVFTDKTGTLTENSMEFIECCIDGHKYKGVTQEVDGLSQTDGTLTYFDKVDKNREELFLRALCLCHTVEIKTNDAVDGATESAELTYISSSPDEIALVKGAKRYGFTFLGNRNGYMRVENQRKEIEEYELLHTLNFDAVRRRMSVIVKTQEGDILLFCKGADSAVFPRVQNHEIELTKVHVERNAMDGYRTLCVAFKEIAPDDYERINRQLIEAKMALQDREEKMEKVFDDIETNMNLIGATAVEDKLQDQAAETIEALHAAGLKVWVLTGDKMETAKSTCYACRLFQTNTELLELTTKTIEESERKEDRLHELLIEYRKKLLHEFPKSTRSFKKAWTEHQEYGLIIDGSTLSLILNSSQDSSSNNYKSIFLQICMKCTAVLCCRMAPLQKAQIVRMVKNLKGSPITLSIGDGANDVSMILESHVGIGIKGKEGRQAARNSDYSVPKFKHLKKLLLAHGHLYYVRIAHLVQYFFYKNLCFILPQFLYQFFCGFSQQPLYDAAYLTMYNICFTSLPILAYSLLEQHINIDTLTSDPRLYMKISGNAMLQLGPFLYWTFLAAFEGTVFFFGTYFLFQTASLEENGKVYGNWTFGTIVFTVLVFTVTLKLALDTRFWTWINHFVIWGSLAFYVFFSFFWGGIIWPFLKQQRMYFVFAQMLSSVSTWLAIILLIFISLFPEILLIVLKNVRRRSARRNLSCRRASDSLSARPSVRPLLLRTFSDESNVL [ATP11C]”, the “solubility in G1/S (log2)” value in data set [1] is -0.156. In addition, the melting temperature was 55.2 °C in data set [2] (cell cycle stage: G1/S) and 55 °C in data set [2] (cell cycle stage: mitosis). The “solubility change mitosis (log2)” value in data set [3] was -0.202. Further, the values for the thermal stability score in data set [4] (setting [5]) and in data set [4] (cell cycle stage: mitosis) were -0.694 and -1.66, respectively.
